Measured values reported in patent US12097252B2, “Formulation of a peptide vaccine” (priority 2016, dated 2024).
Bridge positions count the residues as written; N and C are the ends. Ends that are not written are not given here.

Assay: In-use chemical stability of vaccine emulsions by UPLC/MS after extraction of peptides
Format: physicochemical
Conditions: for Related substances (≥0.05%) [Area %]: peak in reconstituted PRAME-DP-5P; for Peptides and related substances (≥0.05%) [Area %]: peak in reconstituted P53-DP-5P
Description: For samples showing complete dissolution, an emulsion stability of >2 hours, and a chemical stability of the Drug Product solutions (without additional dilution) of >2 hours, the in-use chemical stability of the vaccine emulsions with Montanide ISA 51 VG was monitored with UPLC/MS. For analysis of chemical stability of the reconstituted and emulsified Drug Products, samples were analyzed at various time points, at least up to 2 hours after dissolution. UPLC/MS analysis was performed according to the method describe above for chemical stability of the Drug Product solution, using an extra sample preparation step for extraction of the peptides from the vaccine emulsion. For sample preparation of emulsified products, the following steps were applied: • Take 300 μL Reconstitution Solution and add this to a 15 mL Greiner tube • Add 100 μL heptane • Add 200 μL of the Drug Product emulsion. Pipet the solution up and down three times. • Vortex the mixture for 30 seconds • Centrifuge the mixture for 5 minutes at 4400 rpm to obtain a two-phase system • With a 20-200 μL pipette, take a 100 μL sample from the bottom layer and transfer to a total recovery UPLC vial. • Analyze with UPLC/UV/MS according to the method described for chemical stability of the Drug Product solutions. Results Solvent Screening for Reconstitution and Emulsification
Analysis of chemical stability was performed by UPLC-MS as described in Example 1, at the section describing methods for analysis of in-use chemical stability of HPV-DP-6P and HPV-DP-7P vaccine emulsions including extraction of the peptides from the vaccine emulsion.
Purity of the Drug Product at different time points was calculated as follows: Purity (%)=100%−Sum of impurities≥0.05% area

| Substance | Related substances (≥0.05%) [Area %] (in-use storage t = 0 h) | Related substances (≥0.05%) [Area %] (in-use storage t = 1 h) | Related substances (≥0.05%) [Area %] (in-use storage t = 2 h) | Related substances (≥0.05%) [Area %] (in-use storage t = 3 h) | Peptides and related substances (≥0.05%) [Area %] (in-use storage t = 0 h) | Peptides and related substances (≥0.05%) [Area %] (in-use storage t = 1 h) | Peptides and related substances (≥0.05%) [Area %] (in-use storage t = 2 h) | Peptides and related substances (≥0.05%) [Area %] (in-use storage t = 3 h) |
| --- | --- | --- | --- | --- | --- | --- | --- | --- |
| SEQ ID NO 153: PRAME-derived peptide, component of PRAME DP-5P (LETFKAVLDGLDVLLAQEVRPRRWKLQVLDLRK) | 21.89 Area % | 22.70 Area % | 22.51 Area % | 22.59 Area % |  |  |  |  |
| SEQ ID NO 155: PRAME-derived peptide, component of PRAME DP-5P (WTVWSGNRASLYSFPEPEAAQPMTKKRKVDGLST) | 23.35 Area % | 22.85 Area % | 22.65 Area % | 22.62 Area % |  |  |  |  |
| SEQ ID NO 156: PRAME-derived peptide, component of PRAME DP-5P (IPVEVLVDLFLKEGACDELFSYLIEKVKRKKNVLR) | 10.56 Area % | 10.52 Area % | 10.17 Area % | 9.98 Area % |  |  |  |  |
| SEQ ID NO 160: PRAME-derived peptide, component of PRAME DP-5P (LRRLLLSHIHASSYISPEKEEQYIAQFTSQFLS) | 13.61 Area % | 13.49 Area % | 13.34 Area % | 13.40 Area % |  |  |  |  |
| SEQ ID NO 166: PRAME-derived peptide, component of PRAME DP-5P (SYEDIHGTLHLERLAYLHARLRELLCELGRPSMV) | 13.49 Area % | 14.15 Area % | 13.81 Area % | 13.59 Area % |  |  |  |  |
| SEQ ID NO 191: P53-derived synthetic long peptide, component of P53 DP-5P (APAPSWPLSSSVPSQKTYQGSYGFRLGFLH) |  |  |  |  | 30.37 Area % | 28.75 Area % | 28.81 Area % | 28.81 Area % |
| SEQ ID NO 193: P53-derived synthetic long peptide, component of P53 DP-5P (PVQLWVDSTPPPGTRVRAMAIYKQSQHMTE) |  |  |  |  | 23.90 Area % | 22.38 Area % | 22.31 Area % | 22.19 Area % |
| SEQ ID NO 194: P53-derived synthetic long peptide, component of P53 DP-5P (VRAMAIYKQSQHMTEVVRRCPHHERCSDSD) |  |  |  |  | 13.00 Area % | 12.02 Area % | 11.87 Area % | 11.63 Area % |
| SEQ ID NO 201: P53-derived synthetic long peptide, component of P53 DP-5P (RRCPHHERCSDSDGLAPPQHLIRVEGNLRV) |  |  |  |  | 12.43 Area % | 11.73 Area % | 11.72 Area % | 11.60 Area % |
| SEQ ID NO 203 intramolecular disulfide: related substance: intramolecular disulfide of the peptide set forth in SEQ ID NO: 203 (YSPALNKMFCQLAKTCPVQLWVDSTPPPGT; disulfide 10-16 (inferred)) |  |  |  |  | < | 1.05 Area % | 1.54 Area % | 1.87 Area % |
| SEQ ID NO 203: P53-derived synthetic long peptide, component of P53 DP-5P (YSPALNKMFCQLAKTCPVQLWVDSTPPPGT) |  |  |  |  | 13.73 Area % | 16.73 Area % | 16.21 Area % | 15.56 Area % |
